US20180086837A1 (Ablynx, published 2018)
“And” between values parts separate entries of the source, which are not always exact repeats. Equal values may be shown once.

Experiments:
human CXCR4 [1] = target: T1, human CXCR4 (human, UniProt P61073 1-352); assay: cell-based or functional assay
human CXCR4 [2] = target: T1, human CXCR4; assay: cell-based or functional assay; remark: listed apart in the source
human CXCR4 [3] = target: T1, human CXCR4; assay: cell-based or functional assay; remark: listed apart in the source
human CXCR4 [4] = target: T1, human CXCR4; assay: cell-based or functional assay; remark: listed apart in the source
human CXCR4 [5] = target: T1, human CXCR4; assay: cell-based or functional assay; remark: listed apart in the source
human CXCR4 [6] = target: T1, human CXCR4; assay: cell-based or functional assay; remark: listed apart in the source
human CXCR4 [7] = target: T1, human CXCR4; assay: cell-based or functional assay; remark: listed apart in the source
human CXCR4 [8] = target: T1, human CXCR4; assay: cell-based or functional assay; remark: listed apart in the source
human CXCR4 [9] = target: T1, human CXCR4; assay: cell-based or functional assay; remark: listed apart in the source
human CXCR4 [10] = target: T1, human CXCR4; assay: cell-based or functional assay; remark: listed apart in the source
human CXCR4 [11] = target: T1, human CXCR4; assay: flow cytometry, THP-1 cells (double-positive)
human CXCR4 [12] = target: T1, human CXCR4; assay: flow cytometry, MOLM-13 cells (CXCR4+/CD4+)
human CXCR4 [13] = target: T1, human CXCR4; assay: flow cytometry, Jurkat E6-1 cells (CXCR4+/CD4low)
human CXCR4 [14] = target: T1, human CXCR4; assay: [125I]-SDF-1 displacement, HEK293-CXCR4 membrane extracts
human CXCR4 [15] = target: T1, human CXCR4; assay: SDF-1^AF647 displacement, SUPT-1 cells, flow cytometry, n = 3
human CXCR4 [16] = target: T1, human CXCR4; assay: [125I]-SDF-1 displacement, HEK293-CXCR4 membrane extracts, n = 3
human CXCR4 [17] = target: T1, human CXCR4; assay: competition with 12G5 (competitor, 1 nM), Jurkat cells, flow cytometry
human CXCR4 [18] = target: T1, human CXCR4; assay: inhibition of 12G5 (competitor, 10 nM PE-labelled) binding, THP-1 cells
human CXCR4 [19] = target: T1, human CXCR4; assay: inhibition of 12G5 (competitor, 10 nM PE-labelled) binding, Jurkat cells
human CXCR4 [20] = target: T1, human CXCR4; assay: inhibition of 12G5 (competitor, 10 nM PE-labelled) binding, SUPT-1 cells
[21] = target: T2, human CD4 expressed on cells (human, UniProt P01730 26-458); assay: cell-based or functional assay
[22] = target: T2, human CD4 expressed on cells; assay: cell-based or functional assay; remark: listed apart in the source
[23] = target: T2, human CD4 expressed on cells; assay: cell-based or functional assay; remark: listed apart in the source
[24] = target: T2, human CD4 expressed on cells; assay: cell-based or functional assay; remark: listed apart in the source
[25] = target: T2, human CD4 expressed on cells; assay: cell-based or functional assay; remark: listed apart in the source
[26] = target: T2, human CD4 expressed on cells; assay: cell-based or functional assay; remark: listed apart in the source
[27] = target: T2, human CD4 expressed on cells; assay: cell-based or functional assay; remark: listed apart in the source
[28] = target: T2, human CD4 expressed on cells; assay: cell-based or functional assay; remark: listed apart in the source
[29] = target: T2, human CD4 expressed on cells; assay: flow cytometry, THP-1 cells
[30] = target: T2, human CD4 expressed on cells; assay: flow cytometry, Jurkat cells
[31] = target: T2, human CD4 expressed on cells; assay: flow cytometry, MOLM-13 cells (CXCR4+/CD4+)
[32] = target: T2, human CD4 expressed on cells; assay: flow cytometry, THP-1 cells, anti-flag detection
[33] = target: T2, human CD4 expressed on cells; assay: flow cytometry, MOLM-13 cells, anti-flag detection
[34] = target: T2, human CD4 expressed on cells; assay: flow cytometry, primary human T cells, anti-flag detection
cynomolgus CD4 = target: T3, cynomolgus CD4 (cynomolgus, UniProt P79185 26-458); assay: flow cytometry on the cynomolgus CD4+ T cell line HSC-F, anti-Flag + goat anti-mouse-PE
T3 construct: whole, on cells; also called cyno CD4
T3 sequence (P79185 26-458): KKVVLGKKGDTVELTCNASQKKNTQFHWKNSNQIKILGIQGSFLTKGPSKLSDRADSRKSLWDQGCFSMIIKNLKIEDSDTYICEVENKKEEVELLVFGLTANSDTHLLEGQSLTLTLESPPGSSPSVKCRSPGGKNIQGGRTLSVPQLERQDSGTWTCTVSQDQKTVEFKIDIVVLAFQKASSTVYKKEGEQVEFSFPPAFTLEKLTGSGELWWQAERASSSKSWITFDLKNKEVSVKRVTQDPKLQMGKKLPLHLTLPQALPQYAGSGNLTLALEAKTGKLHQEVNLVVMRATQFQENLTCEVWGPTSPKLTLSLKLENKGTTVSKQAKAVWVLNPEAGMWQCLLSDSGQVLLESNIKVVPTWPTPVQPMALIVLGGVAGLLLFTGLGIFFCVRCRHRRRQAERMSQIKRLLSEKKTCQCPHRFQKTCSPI

human CXCR4 [35] = target: T1, human CXCR4; assay: ELISA on coated hCXCR4 lipoparticles versus null lipoparticles, anti-c-myc + anti-mouse-HRP
[36] = target: T2, human CD4 expressed on cells; assay: flow cytometry, Jurkat E6-1 cells (CXCR4+/CD4low); Jurkat E6-1 cells (CXCR4+/CD4low), average of 3 experiments

T1 sequence (P61073 whole entry): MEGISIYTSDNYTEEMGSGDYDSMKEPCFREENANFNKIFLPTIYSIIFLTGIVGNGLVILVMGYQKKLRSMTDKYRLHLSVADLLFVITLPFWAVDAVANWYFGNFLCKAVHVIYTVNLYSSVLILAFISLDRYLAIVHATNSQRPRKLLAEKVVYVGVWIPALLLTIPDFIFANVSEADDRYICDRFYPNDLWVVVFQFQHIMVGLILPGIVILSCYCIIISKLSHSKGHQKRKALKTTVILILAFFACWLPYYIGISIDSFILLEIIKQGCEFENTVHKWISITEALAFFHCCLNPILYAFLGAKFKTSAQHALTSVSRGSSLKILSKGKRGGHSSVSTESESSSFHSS

B1: Nanobody 281F12 (VHH)
VHH: EVQLVESGGGLVQAGDSLRLSCAASGRAFSRYAMGWFRQAPGKEREFVAAIGWGPSKTNYADSVKGRFTISRDNAKNTVYLQMNTLKPEDTAVYSCAAKFVNTDSTWSRSEMYTYWGQGTQVTVSS
notes: also called CXCR4 281F12; anti-CXCR4 Nanobody 281F12; not shown: C-terminal c-myc-His6 tag (E. coli) or FLAG3-His6 tag (Pichia)
For B1, the “IC50, dual-tropic R5/X4 HIV-1 HE in PBMCs” value (human CXCR4 [1]) was 267 nM, the “average IC50, HIV-1 NL4.3 replication in MT-4 cells” value (human CXCR4 [1]) was 0.34 µg/mL and the “IC50, HIV-1 CM237 (clade B) infectivity in PBMC” value (human CXCR4 [2]) was 16 nM. For the same binder, the “IC50, HIV-1 NL4.3 (X4) infectivity in PBMC” value (human CXCR4 [2]) was 14 nM, the “IC50, HIV-1 UG270 (clade D) infectivity in PBMC” value (human CXCR4 [2]) was 12 nM and the “IC90, HIV-1 CM237 (clade B) infectivity in PBMC” value (human CXCR4 [2]) was 49 nM. For the same binder, the “IC90, HIV-1 NL4.3 (X4) infectivity in PBMC” value (human CXCR4 [2]) was 57 nM, the “IC90, HIV-1 UG270 (clade D) infectivity in PBMC” value (human CXCR4 [2]) was 2.4 nM and the “IC50, inhibition of SDF-1a-mediated chemotaxis, Jurkat E6-1 cells” value (human CXCR4 [3]) was 84.2 nM. The “IC50, inhibition of SDF-1a-mediated chemotaxis, MOLM-13 cells” value (human CXCR4 [3]) was 86 nM, the “IC50, SDF-1 induced Ca2+ signaling, U87-CD4-CXCR4 cells” value (human CXCR4 [4]) was 66.7 nM and the “IC50, MT-4 + NL4.3 (X4)” value (human CXCR4 [5]) was 22.9 nM. The “IC50, PBMC + BaL (R5)” value (human CXCR4 [5]) was over 1670 nM, the “IC50, PBMC + NL4.3 (X4)” value (human CXCR4 [5]) was 27.7 nM and the “IC50, U87 + NL4.3 (X4)” value (human CXCR4 [5]) was over 6670 nM. The “IC50, MT-4, HE (R5/X4)” value (human CXCR4 [6]) was 10 nM, the “IC50, MT-4, HIV-2 ROD (R5/X4)” value (human CXCR4 [6]) was 86.7 nM and the “IC50, MT-4, NL4.3 (X4)” value (human CXCR4 [6]) was 22.7 nM. The “IC50, PBMC, BaL (R5)” value (human CXCR4 [6]) was over 1700 nM, the “IC50, PBMC, DJ259 (R5)” value (human CXCR4 [6]) was over 1700 nM and the “IC50, PBMC, HE (R5/X4)” value (human CXCR4 [6]) was 350 nM. For the same binder, the “IC50, PBMC, NL4.3 (X4)” value (human CXCR4 [6]) was 47 nM, the “IC50, MT-4, NL4.3 2G12 res.” value (human CXCR4 [7]) was 17.3 nM and the “IC50, MT-4, NL4.3 3F11 res.” value (human CXCR4 [7]) was 87.3 nM. For the same binder, the “IC50, MT-4, NL4.3 281F12 res.” value (human CXCR4 [7]) was 2330 nM, the “IC50, MT-4, NL4.3 AMD-3100 res.” value (human CXCR4 [7]) was over 1700 nM and the “IC50, MT-4, NL4.3 CXCL-12 res.” value (human CXCR4 [7]) was 220 nM. For the same binder, the “IC50, MT-4, NL4.3 wt” value (human CXCR4 [7]) was 22.7 nM, the “IC50, PBMC, NL4.3 3F11 res.” value (human CXCR4 [7]) was 120 nM and the “IC50, PBMC, NL4.3 281F12 res.” value (human CXCR4 [7]) was 310 nM. For the same binder, the “IC50, PBMC, NL4.3 WT” value (human CXCR4 [7]) was 28 nM, the “IC50, TZM-bl, DJ259 (R5)” value (human CXCR4 [8]) was over 6700 nM and the “IC50, TZM-bl, NL4.3 3F11 res” value (human CXCR4 [8]) was 45.6 nM. For the same binder, the “IC50, TZM-bl, NL4.3 281F12 res” value (human CXCR4 [8]) was 366 nM, the “IC50, TZM-bl, NL4.3 WT (X4)” value (human CXCR4 [8]) was 23.5 nM and the “IC50, TZM-bl, SM145 (R5)” value (human CXCR4 [8]) was over 6700 nM. For the same binder, the “IC50, syncytia formation, SupT1 + HUT-78/IIIb” value (human CXCR4 [9]) was 1800 nM, the “IC50, syncytia formation, SupT1 + HUT-78/NL4.3” value (human CXCR4 [9]) was 3600 nM and the “IC50, HIV1 infectivity, X4 NL4.3 in MT-4 cells” value (human CXCR4 [10]) was 59.4 nM. It also gave an EC50 (human CXCR4 [11]) of 3.1 nM, an EC50 (human CXCR4 [12]) of 5.2 nM and an EC50 (human CXCR4 [13]) of 7 nM. The Ki (human CXCR4 [14]) was 27 nM and 26 nM, the IC50 (human CXCR4 [15]) was 6.3 nM and the pKi (human CXCR4 [16]) was 7.57. For the same binder, the IC50 (human CXCR4 [17]) was 13 nM, the IC50 (human CXCR4 [18]) was 49.3 nM and the IC50 (human CXCR4 [19]) was 13.7 nM. For the same binder, the IC50 (human CXCR4 [20]) was 51.3 nM.

B2: Nanobody 03F11 (VHH)
VHH: EVQLVESGGGSVQPGGSLTLSCGTSGRTFNVMGWFRQAPGKEREFVAAVRWSSTGIYYTQYADSVKSRFTISRDNAKNTVYLEMNSLKPEDTAVYYCAADTYNSNPARWDGYDFRGQGTQVTVSS
notes: Monovalent anti-human CD4 Nanobody; also called CD4 3F11; anti-CD4 Nanobody 3F11; not shown: C-terminal myc-His6 tag (E. coli) or FLAG3-His6 tag (Pichia)
With B2 the “IC50, X4 HIV-1 NL4.3 replication in MT-4 cells” value [21] was 0.52 µg/mL, the “IC50, HIV-1 neutralization, MT-4 + NL4.3” value [22] was 34.7 nM and the “IC50, MT-4 + NL4.3 (X4)” value [23] was 35.3 nM. For the same binder, the “IC50, PBMC + BaL (R5)” value [23] was 610 nM, the “IC50, PBMC + NL4.3 (X4)” value [23] was 580 nM and the “IC50, U87 + NL4.3 (X4)” value [23] was over 1330 nM. The “IC50, MT-4, HE (R5/X4)” value [24] was 10 nM, the “IC50, MT-4, HIV-2 ROD (R5/X4)” value [24] was 22.7 nM and the “IC50, MT-4, NL4.3 (X4)” value [24] was 34.7 nM. For the same binder, the “IC50, PBMC, BaL (R5)” value [24] was 610 nM, the “IC50, PBMC, DJ259 (R5)” value [24] was 31 nM and the “IC50, PBMC, HE (R5/X4)” value [24] was over 1700 nM. For the same binder, the “IC50, PBMC, NL4.3 (X4)” value [24] was 500 nM, the “IC50, PBMC, SM145 (R5)” value [24] was 27 nM and the “IC50, MT-4, NL4.3 2G12 res.” value [25] was 23.3 nM. For the same binder, the “IC50, MT-4, NL4.3 3F11 res.” value [25] was over 6700 nM, the “IC50, MT-4, NL4.3 281F12 res.” value [25] was over 6700 nM and the “IC50, MT-4, NL4.3 AMD-3100 res.” value [25] was 22.7 nM. The “IC50, MT-4, NL4.3 CXCL-12 res.” value [25] was 153 nM, the “IC50, MT-4, NL4.3 wt” value [25] was 34.7 nM and the “IC50, PBMC, NL4.3 3F11 res.” value [25] was over 6700 nM. For the same binder, the “IC50, PBMC, NL4.3 281F12 res.” value [25] was over 6700 nM, the “IC50, PBMC, NL4.3 WT” value [25] was 500 nM and the “IC50, TZM-bl, DJ259 (R5)” value [26] was 169 nM. The “IC50, TZM-bl, NL4.3 3F11 res” value [26] was over 6700 nM, the “IC50, TZM-bl, NL4.3 281F12 res” value [26] was over 6700 nM and the “IC50, TZM-bl, NL4.3 WT (X4)” value [26] was 131 nM. The “IC50, TZM-bl, SM145 (R5)” value [26] was 8.33 nM, the “IC50, syncytia formation, SupT1 + HUT-78/IIIb” value [27] was 4600 nM and the “IC50, syncytia formation, SupT1 + HUT-78/NL4.3” value [27] was 2800 nM. The “IC50, HIV1 infectivity, X4 NL4.3 in MT-4 cells” value [28] was 60.7 nM, the EC50 [29] was 0.5 nM and the EC50 [30] was 1.1 nM. It also gave an EC50 [31] of 0.7 nM, an EC50 [32] of 1 nM and an EC50 [33] of 0.6 nM. For the same binder, the EC50 [34] was 0.76 nM, the binding result (cynomolgus CD4) was “binds” and the binding result (human CXCR4 [35]) was “no binding (tested: 100 nM)”. The EC50 [36] was 1.4 nM.
